In patent publication US9803012B2, “Compositions and methods for regulating SAS1R” (UNIVERSITY OF VIRGINIA PATENT FOUNDATION, priority 2005, dated 2017):

Legend:
[1] = system: M2 oocytes; assay: Co-localization of rSLLP1 binding sites and SAS1R on oocytes; type: cell-based, mouse; details: oocytes incubated with rSLLP1, probed with SLLP1 and SAS1R antibodies
Procedure: Zona intact-, zona free oocytes, early embryos and sperm were collected as before (10), blocked and probed with 1st and 2nd antibody and imaged with UV-microscopy. For co-LC studies, gametes were incubated with soluble rSAS1R or rSLLP1, washed, probed with 1st- and 2nd antibodies and imaged with UV-microscopy.
Mouse oocytes were also examined for co-localization of SLLP1 binding sites and SAS1R localization. Oocytes were incubated with gradually increasing concentrations (0-100 μg/ml) of recombinant SLLP1 for 1 h, and then oocytes were washed five times and incubated with guinea pig anti-recombinant SAS1R polyclonal antibody (1:200) and rat anti-recombinant SLLP1 polyclonal antibody (1:200), simultaneously, in 0.1% NGS/media for 1 h at 37° C. and 5% CO2. Oocytes were washed five times and incubated with goat anti-guinea pig/Cy3 Red antibody (1:200) (Jackson ImmunoResearch, PA) and goat anti-rat/FITC Green antibody (1:200) (Jackson ImmunoResearch, PA), in 0.1% NGS/media for 1 h at 37° C. and 5% CO2. Oocytes were washed and mounted in media on glass slides. SLLP1 and SAS1R images were captured separately with MrGrab 1.0 (Carl Zeiss Vision GmbH, Germany) on the Zeiss Standard 18 ultraviolet microscope and were merged digitally to evaluate their respective localizations.

[2] = system: cumulus intact oocytes; assay: In vitro fertilization with cumulus-oocyte complexes (SLLP1 antiserum, recmSLLP1); type: cell-based, mouse; details: for % Fertilization: oocytes 45 min prior to insemination
Procedure: Hybrid F1 mice (C57BL/6J×CBA) were used in all experiments. Suspensions of epididymal spermatozoa from sexually mature male mice were prepared for insemination of isolated oocytes. Oocytes were obtained from 28-day-old females superovulated with 10 IU PMSG and 10 IU hCG, injected intraperitoneally 48 h apart. Females were killed 16 h after hCG injection and both oviducts were immediately removed and placed in mineral oil.
In vitro fertilization with cumulus intact oocytes was conducted with sperm dispersed from cauda epididymides placed for 5 min in 200 μl drops of fertilization medium under paraffin oil. The sperm suspension was diluted to a concentration of 10^6 sperm/ml in a volume of 200 μl and then incubated for 120 min in a humidified tissue culture incubator (37° C., 5% CO2 in air) to allow capacitation. In the experiments where anti-recmSLLP1 serum was tested, spermatozoa were incubated with varying concentrations of decomplemented (56° C., 30 min) immune or preimmune serum for the last 45 min of capacitation. In the experiments where recmSLLP1 was evaluated, spermatozoa were incubated under standard capacitating conditions.
Cumulus masses were placed in 135 μl drops of fertilization medium (one mass per drop) under paraffin oil and were incubated for 45 min with immune or preimmune serum or in presence or absence of recmSLLP1 prior to insemination. Fifteen μl of the sperm suspension (final concentration: 10^5 sperm/ml) was then added to each cumulus mass drop. Thus, sera or recombinant protein was present in the incubation droplet during gamete interaction. Six hours following insemination oocytes were relocated in 100 μl drops of fertilization medium under mineral oil. Following overnight incubation, eggs were stained in Hoechst dye (10 μg/ml) for 10 min and washed 3 times in fertilization medium. The eggs were then placed in a 5 μl drop of fertilization medium between a microscope slide and an elevated coverslip, and visualized at 160× using light and fluorescence microscopy (Zeiss Axioplan). Two cells embryos were scored as fertilized, while one-celled oocytes were scored as unfertilized.

[3] = system: zona-free mouse eggs; assay: In vitro fertilization with zona-free eggs (sperm-oolemma binding and fusion); type: cell-based
Procedure: For the sperm-oolemma binding assay, two cauda epididymides were placed in 900 μl drops of fertilization medium under paraffin oil for the dense mass of spermatozoa to flow freely for ˜15 min and then diluted at 1×10^6/ml for 3 h of capacitation. Cumulus oocyte complexes were placed in 200 μl drops of TYH medium under paraffin oil. Cumulus cells were removed by treating the oocytes for 3 min with 1 mg/ml hyaluronidase in TYH medium and then washed 8 times in 50 μl drops. Zona pellucidae were loosened by treating the oocytes with 10 μg/ml chymotrypsin in TYH media for 1 min and loosened zonae were removed by mechanical agitation using a pulled Pasteur pipette. The oocytes were then washed 10 times and allowed to recover from chymotrypsin treatment by incubating in TYH media for 3 h, following which, they were stained with 10 μg/ml Hoechst dye for 10 min, and then gently washed. […]
To compare the effects of recmSLLP1 with human and chicken c lysozymes, spermatozoa were first incubated under standard capacitating conditions. Oocytes were pre-incubated for 45 min before insemination with recmSLLP1 (0.1 to 200 μg/ml) or with hSLLP1 (25 μg/ml) or with chicken or human lysozyme (50 μg/ml, 100 μg/ml). Untreated capacitated sperm were then added to the incubation drops containing the treated eggs with a final sperm concentration of 2.5×10^4/ml. Thus, in all the experiments performed the sera, the recombinant protein, or the lysozyme was present in the incubation droplet during gamete interaction. After 30 min of gamete co-incubation, oocytes were gently washed 5 times in TYH medium and placed between a microscope slide and an elevated coverslip and visualized at 160×. Binding to the oocyte was scored by counting the number of bound spermatozoa per oocyte using phase contrast. Fusion with the egg was scored by counting the number of decondensed sperm heads within each oocyte using fluorescence microscopy.

[4] = system: zona-free mouse eggs; assay: as above; type: cell-based; remark: listed apart in the source
[5] = recmSLLP1 200 μg/ml (12.5 μM), oocytes pre-incubated
[6] = relative to the controls, including recombinant egg protein ePAD

B1: recmSLLP1: mature mouse SLLP1, residues 94 to 221, six-histidine C terminal tag, expressed in E. coli, about 15 kDa (protein)
chain: KVFSRCELAKEMHDFGLDGYRGYNLADWVCLAYYTSGFNTNAVDHEADGSTNNGIFQISSRRWCRTLASNGPNLCRIYCTDLLNNDLKDSIVCAMKIVQEPLGLGYWEAWRHHCQGRDLSDWVDGCDF
modifications: left off: small tags and cut ends
- binding to oocytes [1]: binds to oocyte microvillar domain and co-localizes with native SAS1R
- difference in percentage of fertilization vs control ([2]; recmSLLP1 50 μg/ml): no significant difference
- % Fertilization ([2]; recmSLLP1 50 μg/ml): 48%
- inhibition of fertilization rate vs control ([2]; recmSLLP1 200 μg/ml, P≦0.05): 73%
- % Fertilization ([2]; recmSLLP1 200 μg/ml): 12%
- sperm-egg binding and fusion ([3]; 50 μg of mouse SLLP1): maximally inhibited
- inhibition of binding [3, 5]: 100%
- inhibition of fusion [3, 5]: 100%
- lowest concentration with significant effect on spermatozoa bound to or fused to the egg ([3]; recmSLLP1 0.1-200 μg/ml): 0.1 µg/mL
- sperm-egg binding, number of sperm bound/egg [3, 6]: essentially completely inhibit
- sperm-egg fusion [3, 6]: essentially completely inhibit
- percentages of motile spermatozoa compared to the control [4]: no difference
